From article PMC2603313, “Direct Inhibition of GSK3β by the Phosphorylated Cytoplasmic Domain of LRP6 in Wnt/β-Catenin Signaling” (PLoS ONE, 2008) come the findings set out here.

Residue numbers refer to the chain shown, from its start. Numbers in names are those of the source. Ends that are not written are not given here.

Experiment [1] deals with T1, GSK3β (Mus musculus, UniProt Q9WV60).
T1 construct: The catalytic domains of mouse GSK3β (residues 27–393) and CK1ε (residues 1–319) were expressed and purified; made in house
As to the kind of experiment: Far western binding of GSK3β to GST-fused LRP6 fragments. The following applies: for Binding of GSK3β: GST-fusion treated with GSK3β and CK1, GSK3β 1 µg/ml, three independent experiments. The source says: We first investigated whether the intracellular region of LRP6 binds to GSK3β in a phosphorylation-dependent manner. To detect binding, we used recombinant GST-fused LRP6 fragments (miniCL, miniCLMT, PPPSPxS, PPPAPxS; Fig. 1A) and GSK3β proteins in a far western binding assay. This assay is appropriate as the LRP6 cytoplasmic region is expected to be natively unstructured and therefore should not suffer from denaturation artifacts. Prior to the binding reaction, the GST-fused LRP6 fragments were phosphorylated by GSK3β and CK1 and transferred to a PVDF membrane. The membrane was incubated with GSK3β, and bound GSK3β was detected with an anti-GSK3β antibody. GSK3β bound to GST-miniCL and GST-miniCLMT, but not GST-PPPSPxS or GST-PPPAPxS (Fig. 4). […] Also, given the measured Ki value of the single PPPSPxS motif, it was expected that the single PPPSPxS motif might exert a limited role in recruiting the GSK3β.
Figure 4 Phosphorylation-dependent binding of the LRP6 intracellular region to GSK3β in the absence and presence of Axin. (A) GST (Lane 1), GST-fused miniCL (Lane 3; GST-miniCL), GST-fused miniCLMT (Lane 5; GST-miniCLMT), and their phosphorylated forms (Lanes 2, 4, 6; indicated by “phos”) were loaded onto an SDS-polyacrylamide gel, and then transferred to PVDF membrane (Left top). […] The phosphorylated protein bands show an upshifted mobility on the gel. The PVDF membrane was incubated with 1 µg/ml of GSK3β to allow GSK3β to bind to the proteins in the membrane. The bound GSK3β was visualized on the transferred proteins by western blotting using an anti-GSK3β antibody (Left bottom), and the GSK3β protein used to obtain the phosphorylated forms of each protein is indicated by GSK3β*. The band intensities of bound GSK3β were measured from the three independent experiments (Right). […] The phosphorylated GST-fused miniCL was transferred to PVDF membrane, and the membrane was incubated with GSK3β (0.1 µg/ml) and GST-fused Axin GBD domain protein (0, 10 µM). Error bars indicate the standard deviation from three independent experiments. […]

Experiment [2] concerns the target T1, GSK3β. Description: In vitro GSK3β activity assay with synthetic peptides (phosphorylation of primed β-catenin N-terminal fragment). The following applies: at 100 µM; primed β-catenin N-terminal fragment 7 µM, 1 mM ATP, pH 8.0, 30 min at 37°C; 4–7 independent experiments. Format: biochemical. The source says:
We synthesized one dually-phosphorylated (NPPPpSPApTERSH, where pS or pT designates a phosphorylated Ser or Thr residue), two singly-phosphorylated (NPPPSPApTERSH and NPPPp[…]) and one non-phosphorylated ([…]) peptides derived from the first PPPSPxS motif of LRP6 (Fig. 1A). To measure the GSK3β activity toward β-catenin in vitro, we utilized a β-catenin N-terminal fragment (residues 1–133), whose Ser45 was prephosphorylated by CK1, as a substrate (Ha et al., 2004). Each synthetic peptide was added to a reaction mixture containing the purified GSK3β enzyme and the substrate β-catenin N-terminal fragment. The GSK3β activity was determined through measurement of the intensity of the supershifted (retarded) β-catenin bands (Fig. S3), which represent the phosphorylated product species (Fig. S4), on an SDS-polyacrylamide gel (Figs. S3, S4, S5, S6, S7). […] This corresponds well with the results of Zeng et al., who reported that the first Ser residue in the PPPSPxS motif has a more important role in Wnt/β-catenin signaling than the second Ser residue.
The catalytic domains of mouse GSK3β (residues 27–393) and CK1ε (residues 1–319) were expressed and purified as previously described. The N-terminal region (residues 1–133) of β-catenin was expressed in Escherichia coli as a GST-fusion protein with a TEV protease cleavage site and then purified using Glutathione-agarose. Subsequently, the GST tag was cleaved using recombinant TEV protease and was removed by repeated HiTrapQ anion-exchange chromatography. The N-terminal region of β-catenin was then phosphorylated by incubation with the catalytic domain of CK1ε (0.28 mg/ml) at 37°C for 20 min in 50 mM Tris buffer (pH 8.0) containing 10 mM MgCl2, 10 mM 2-mercaptoethanol, and 2 mM phenylmethylsulfonylfluoride. The phosphorylated β-catenin fragment was then further purified using HiTrapQ anion-exchange chromatography to remove the CK1ε enzyme. […]

For experiment [3], the target named is T2, catalytic domain of mouse GSK3β (residues 27–393) (mouse, UniProt Q9WV60 27-393).
T2 construct: GSK3β (glycogen synthase kinase 3 beta), mouse, catalytic domain, residues 27-393; also called recombinant GSK3β catalytic domain; source: recombinant, expressed and purified as previously described [32]
As to the kind of experiment: far-Western, overlay or dot blot; GST-fused LRP6 fragments (with or without prior treatment with GSK3β and CK1) run on SDS-PAGE and transferred to PVDF; membrane incubated 3 h with 1 µg/ml GSK3β in 5% skim milk in TBST (20 mM Tris pH 7.6, 137 mM NaCl, 0.05% Tween 20); bound GSK3β detected with anti-GSK3β antibody. The following applies: both partners purified.

On to “GST-miniCL: GST-fused human LRP6 miniCL, residues 1470–1510 (SSSSSSTKGTYFPAILNPPPSPATERSHYTMEFGYSSNSPS; also: GST fusion (GST left off))”, for which the “Binding of GSK3β” value in the experiment with GSK3β [1] is recorded as “bound”.

Regarding “GST-miniCLMT: GST-fused miniCLMT, residues 1470–1510 with substitution at Ser1490 with Ala (SSSSSSTKGTYFPAILNPPPAPATERSHYTMEFGYSSNSPS; also: GST fusion (GST left off))”, in the experiment with GSK3β [1], the “Effect of S1490A mutation on GSK3β binding” value was “does not affect binding” and the “Binding of GSK3β” value is on record as “bound”.

On to “NPPPSPApTERSH [PPPSPx(p)S, singly-phosphorylated peptide (second Ser/Thr) derived from the first PPPSPxS motif of LRP6]”, for which the “Inhibitory effect on GSK3β activity toward β-catenin” value at GSK3β [2] is listed as “only a marginal inhibitory effect”.

B1: GST-fused LRP6 miniCL (residues 1470–1510 of human LRP6), phosphorylated by GSK3β and CK1 (domain or fragment, UniProt O75581 1470-1510, looked up)
chain: SSSSSSTKGTYFPAILNPPPSPATERSHYTMEFGYSSNSPS
modifications: also: GST-fused, end not given here, phosphorylated by GSK3β and CK1ε, sites not given here
notes: LRP6, human, intracellular fragment miniCL, residues 1470-1510 (Ser/Thr rich cluster and first PPPSPxS motif); also called phosphorylated GST-miniCL; GST-miniCL phos; source: E. coli, purified (Glutathione-agarose, HiTrapQ), then phosphorylated in vitro with recombinant GSK3β and CK1ε
Regarding B1, the binding result in experiment [3] is on record as “binds”.

B2: GST-fused LRP6 miniCLMT (residues 1470–1510 of human LRP6, S1490A), not phosphorylated (domain or fragment, UniProt O75581 1470-1510, looked up)
chain: B1 chain with S21A
modifications: also: GST fusion (GST left off)
notes: LRP6, human, intracellular fragment miniCL, residues 1470-1510, with Ser1490 replaced by Ala; also called GST-miniCLMT; source: E. coli, purified (Glutathione-agarose, HiTrapQ)
Turning to B2, the binding result in experiment [3] was “binds”.

B3: GST-fused LRP6 miniCLMT (residues 1470–1510 of human LRP6, S1490A), phosphorylated by GSK3β and CK1 (domain or fragment, UniProt O75581 1470-1510, looked up)
chain: B1 chain with S21A
modifications: also: GST-fused, end not given here, phosphorylated in vitro by GSK3β and CK1ε, sites not given here
notes: LRP6, human, intracellular fragment miniCL, residues 1470-1510, with Ser1490 replaced by Ala; also called phosphorylated GST-miniCLMT; GST-miniCLMT phos; source: E. coli, purified (Glutathione-agarose, HiTrapQ), then phosphorylated in vitro with recombinant GSK3β and CK1ε
For the molecule B3, the binding result in experiment [3] is recorded as “binds”.
